Assay results from article PMC2908255.
pKd: −log10 of the molar value.

Molecular target: Erk2 (UniProt P63086)
Experiment: ITC

“HePTP 15-339 (includes the KIM) (domain or fragment)” was tested, and the pKd was 6.26, the dH was -10.8 kcal/mol and the stoichiometry N was 0.95.
